This note sets out measurements from the supplement of paper PMC10899765.

Settings in all cases: 20 nM; 72 h
Data set [1] relates to MCF10A. Nature of the data set: 5+ nucleoli phenotype percent effect (relative to siNT 0% and siKIF11 100%); higher = more cells with five or more nucleoli. On the procedure: (§1)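 After 72 h, cells were fixed and stained with Hoechst and anti-fibrillarin, and nucleoli per nucleus were counted with CellProfiler. Values are plate-adjusted percent effect for the one-nucleolus and 5+ nucleoli phenotypes, normalised to siNT (0%) and to the positive controls siNOL11 or siKIF11 (100%), as the mean of biological triplicates. Percent viability is the nuclei count relative to siNT.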

Data set [2] relates to MCF10A. Nature of the data set: one-nucleolus phenotype percent effect (relative to siNT 0% and siNOL11 100%); higher = more cells with one nucleolus (ribosome biogenesis inhibition). On the procedure: as §1
For data set [3], the system named is MCF10A. Kind of data set: percent viability (nuclei count relative to siNT); higher = more viable cells. Here is the method: as §1

In the case of “UGAGGGGCCUCAGACCGAGCUUUU [hsa-miR-3184-5p]”, in data set [1], the “5+ nucleoli phenotype percent effect” value came out at 38.7%. Besides, in data set [2], the “one-nucleolus phenotype percent effect” value came out at 5.35%. Besides, the percent viability in data set [3] amounted to 31.2%.

Consider UGAGGGGUUUGGAAUGGGAUGG [hsa-miR-5194], for which the “5+ nucleoli phenotype percent effect” value in data set [1] came out at 21%. In addition, in data set [2], the “one-nucleolus phenotype percent effect” value turned out to be 13.7%. For the same sequence, in data set [3], the percent viability was found to be 14.8%.

Take UGAGGGUGUCAGCAGGUGACG [hsa-miR-6804-5p]: the “5+ nucleoli phenotype percent effect” value in data set [1] was 0.774%. In addition, in data set [2], the “one-nucleolus phenotype percent effect” value came to 19.5%. In data set [3], the percent viability stood at 11.7%.

Regarding UGAGGUAGGAGGUUGUAUAGUU [hsa-let-7e-5p], the “5+ nucleoli phenotype percent effect” value in data set [1] was 48.7%. Further, the “one-nucleolus phenotype percent effect” value in data set [2] is -8.3%. Moreover, the percent viability in data set [3] is 23%.

Turning to UGAGGUAGUAAGUUGUAUUGUU [hsa-miR-98-5p], the “5+ nucleoli phenotype percent effect” value in data set [1] is 44.8%. In addition, in data set [2], the “one-nucleolus phenotype percent effect” value is -13%. Also, the percent viability in data set [3] was 30%.

UGAGGUAGUAGAUUGUAUAGUU [hsa-let-7f-5p]: the “5+ nucleoli phenotype percent effect” value in data set [1] is 25.3%. The “one-nucleolus phenotype percent effect” value in data set [2] is -20.6%. In addition, the percent viability in data set [3] came out at 123%.

In the case of UGAGGUAGUAGGUUGUAUAGUU [hsa-let-7a-5p], the “5+ nucleoli phenotype percent effect” value in data set [1] is 61.1%. Besides, in data set [2], the “one-nucleolus phenotype percent effect” value is -24.4%. In data set [3], the percent viability came out at 29.1%.

In the case of UGAGGUAGUAGGUUGUAUGGUU [hsa-let-7c], the “5+ nucleoli phenotype percent effect” value in data set [1] stood at 56.3%. Also, the “one-nucleolus phenotype percent effect” value in data set [2] is -17.3%. For the same sequence, the percent viability in data set [3] was found to be 25.9%.

For UGAGGUAGUAGGUUGUGUGGUU [hsa-let-7b-5p], the “5+ nucleoli phenotype percent effect” value in data set [1] stood at 33.9%. In addition, the “one-nucleolus phenotype percent effect” value in data set [2] was -9.82%. Besides, in data set [3], the percent viability was found to be 22.8%.

For the sequence UGAGGUAGUAGUUUCUU [hsa-miR-4500], the “5+ nucleoli phenotype percent effect” value in data set [1] was found to be 43.2%. For the same sequence, the “one-nucleolus phenotype percent effect” value in data set [2] is -31.4%. In addition, the percent viability in data set [3] is 89.3%.

With UGAGGUAGUAGUUUGUACAGUU [hsa-let-7g-5p], in data set [1], the “5+ nucleoli phenotype percent effect” value turned out to be 29%. For the same sequence, in data set [2], the “one-nucleolus phenotype percent effect” value is -16.7%. The percent viability in data set [3] was found to be 21.6%.

UGAGGUAGUAGUUUGUGCUGUU [hsa-let-7i-5p]: the “5+ nucleoli phenotype percent effect” value in data set [1] was determined as 23.9%. Moreover, the “one-nucleolus phenotype percent effect” value in data set [2] is -11.8%. Further, the percent viability in data set [3] was 16.5%.

In the case of UGAGGUGACCGCAGAUGGGAA [hsa-miR-7854-3p], in data set [1], the “5+ nucleoli phenotype percent effect” value was -6.86%. Moreover, the “one-nucleolus phenotype percent effect” value in data set [2] is 29.8%. Moreover, the percent viability in data set [3] came out at 14.8%.

As to UGAGGUGGUAGGAUGUAGA [hsa-miR-6134], the “5+ nucleoli phenotype percent effect” value in data set [1] was -36%. Moreover, in data set [2], the “one-nucleolus phenotype percent effect” value worked out at 40.7%. Moreover, the percent viability in data set [3] is 12%.

With “UGAGUACCGCCAUGUCUGUUGGG [hsa-miR-1911-5p]”, the “5+ nucleoli phenotype percent effect” value in data set [1] was 17.2%. For the same sequence, in data set [2], the “one-nucleolus phenotype percent effect” value is -20.9%. Besides, in data set [3], the percent viability worked out at 108%.

On to UGAGUAUUACAUGGCCAAUCUC [hsa-miR-496], for which the “5+ nucleoli phenotype percent effect” value in data set [1] is -15.6%. Moreover, the “one-nucleolus phenotype percent effect” value in data set [2] is 11.1%. In addition, in data set [3], the percent viability came out at 42%.

UGAGUCAGCAACAUAUCCCAUG [hsa-miR-5702]: in data set [1], the “5+ nucleoli phenotype percent effect” value is 52.5%. Further, the “one-nucleolus phenotype percent effect” value in data set [2] was -25.5%. The percent viability in data set [3] was 86.4%.

For “UGAGUGACAGGGGAAAUGGGGA [hsa-miR-1236-5p]”, in data set [1], the “5+ nucleoli phenotype percent effect” value was -4.72%. For the same sequence, the “one-nucleolus phenotype percent effect” value in data set [2] is -0.0652%. Besides, in data set [3], the percent viability was found to be 36.9%.

Take UGAGUGAUUGAUAGCUAUGUUC [hsa-miR-4765]: in data set [1], the “5+ nucleoli phenotype percent effect” value turned out to be 24.9%. Moreover, the “one-nucleolus phenotype percent effect” value in data set [2] was -19.8%. Moreover, in data set [3], the percent viability was 52.9%.

Regarding UGAGUGCCGGUGCCUGCCCUG [hsa-miR-1909-5p], the “5+ nucleoli phenotype percent effect” value in data set [1] was -15.5%. In data set [2], the “one-nucleolus phenotype percent effect” value came out at 18.8%. Moreover, in data set [3], the percent viability came out at 46.8%.

Consider “UGAGUGGGGCUCCCGGGACGGCG [hsa-miR-4745-5p]”, for which the “5+ nucleoli phenotype percent effect” value in data set [1] was 25%. The “one-nucleolus phenotype percent effect” value in data set [2] was -8.18%. The percent viability in data set [3] was determined as 57.7%.

Consider “UGAGUGUGUGUGUGUGAGUGUGU [hsa-miR-574-5p]”, for which the “5+ nucleoli phenotype percent effect” value in data set [1] is -4.79%. Besides, the “one-nucleolus phenotype percent effect” value in data set [2] is 3.74%. Moreover, in data set [3], the percent viability is 42%.

As to UGAGUGUUGUCUACGAGGGCA [hsa-miR-3659], the “5+ nucleoli phenotype percent effect” value in data set [1] turned out to be 21.3%. Further, the “one-nucleolus phenotype percent effect” value in data set [2] was -0.683%. Moreover, the percent viability in data set [3] came out at 59%.

Regarding UGAGUUGGCCAUCUGAGUGAG [hsa-miR-571], the “5+ nucleoli phenotype percent effect” value in data set [1] amounted to 5.09%. In addition, the “one-nucleolus phenotype percent effect” value in data set [2] is -7.45%. In addition, the percent viability in data set [3] was found to be 84.6%.

With UGAUAUGUUUGAUAUAUUAGGU [hsa-miR-190a], in data set [1], the “5+ nucleoli phenotype percent effect” value amounted to 47.6%. For the same sequence, the “one-nucleolus phenotype percent effect” value in data set [2] was -13.2%. For the same sequence, the percent viability in data set [3] was found to be 116%.

UGAUAUGUUUGAUAUUGGGUU [hsa-miR-190b]: the “5+ nucleoli phenotype percent effect” value in data set [1] was -11.2%. Further, the “one-nucleolus phenotype percent effect” value in data set [2] came to 21.8%. In data set [3], the percent viability came to 36%.

As to “UGAUCAGGCAAAAUUGCAGACU [hsa-miR-4772-5p]”, the “5+ nucleoli phenotype percent effect” value in data set [1] was 47.2%. The “one-nucleolus phenotype percent effect” value in data set [2] is 9.01%. Besides, the percent viability in data set [3] came out at 17%.

Regarding “UGAUCUCACCGCUGCCUCCUUC [hsa-miR-4695-3p]”, in data set [1], the “5+ nucleoli phenotype percent effect” value was 12.8%. The “one-nucleolus phenotype percent effect” value in data set [2] is -9.6%. In addition, the percent viability in data set [3] was found to be 93.9%.

With UGAUGAUACAGGUGGAGGUAG [hsa-miR-3682-3p], in data set [1], the “5+ nucleoli phenotype percent effect” value was -7.38%. For the same sequence, the “one-nucleolus phenotype percent effect” value in data set [2] is 19.3%. In data set [3], the percent viability came out at 31.5%.

On to UGAUGGAGCUGGGAAUACUCUG [hsa-miR-8082], for which the “5+ nucleoli phenotype percent effect” value in data set [1] is -14.2%. For the same sequence, the “one-nucleolus phenotype percent effect” value in data set [2] was determined as 21.8%. Besides, the percent viability in data set [3] came out at 22.3%.

Regarding UGAUGGAUAAAAGACUACAUAUU [hsa-miR-3134], in data set [1], the “5+ nucleoli phenotype percent effect” value is -19.7%. The “one-nucleolus phenotype percent effect” value in data set [2] was 23.3%. For the same sequence, the percent viability in data set [3] was 27.6%.

In the case of UGAUUGGUACGUCUGUGGGUAG [hsa-miR-509-3p], the “5+ nucleoli phenotype percent effect” value in data set [1] was -46.5%. Further, in data set [2], the “one-nucleolus phenotype percent effect” value amounted to 34%. Moreover, the percent viability in data set [3] was determined as 37.8%.

On to “UGAUUGUAGCCUUUUGGAGUAGA [hsa-miR-508-3p]”, for which the “5+ nucleoli phenotype percent effect” value in data set [1] was -32%. Moreover, the “one-nucleolus phenotype percent effect” value in data set [2] turned out to be 23.4%. Also, in data set [3], the percent viability turned out to be 54.1%.

Regarding UGAUUGUCCAAACGCAAUUCU [hsa-miR-219-5p], in data set [1], the “5+ nucleoli phenotype percent effect” value came to 14.5%. The “one-nucleolus phenotype percent effect” value in data set [2] is -9.06%. In addition, the percent viability in data set [3] came to 82.1%.

“UGAUUGUCUUCAUAUCUAGAAC [hsa-miR-4782-3p]”: the “5+ nucleoli phenotype percent effect” value in data set [1] was -13.9%. The “one-nucleolus phenotype percent effect” value in data set [2] is -0.93%. Also, the percent viability in data set [3] was 62%.

For the sequence “UGAUUGUCUUCCCCCACCCUCA [hsa-miR-6766-3p]”, the “5+ nucleoli phenotype percent effect” value in data set [1] was -20.7%. In addition, the “one-nucleolus phenotype percent effect” value in data set [2] came to 1.17%. Also, the percent viability in data set [3] came out at 43.1%.
